According to paper PMC9908901, “Identification of a tomato UDP-arabinosyltransferase for airborne volatile reception” (Nature Communications, 2023):

How the values were obtained:
Test in all cases: steady-state kinetics, HPLC-MS of glycoside product
Assay type in all cases: biochemical, Solanum lycopersicum
[1] = substrate: O=c1ccn([C@@H]2O[C@H](COP(=O)(O)OP(=O)(O)O[C@H]3OC[C@@H](O)[C@H](O)[C@H]3O)[C@@H](O)[C@H]2O)c(=O)[nH]1; conditions: HexGlc fixed as acceptor, 50 mM potassium phosphate pH 7.5, 30 °C
Excerpt: (§1) steady-state kinetics, HPLC-MS of glycoside product on UGT91R1

[2] = substrate: CC/C=C\CCO[C@@H]1O[C@H](CO)[C@@H](O)[C@H](O)[C@H]1O; conditions: UDP-arabinose fixed as donor, 50 mM potassium phosphate pH 7.5, 30 °C
Excerpt: as §1

[3] = substrate: O=c1ccn([C@@H]2O[C@H](COP(=O)(O)OP(=O)(O)O[C@H]3OC[C@H](O)[C@H](O)[C@H]3O)[C@@H](O)[C@H]2O)c(=O)[nH]1; conditions: HexGlc fixed as acceptor, 50 mM potassium phosphate pH 7.5, 30 °C
Excerpt: as §1

B1: UGT91R1 (Solanum lycopersicum) (protein)
chain: MAENGKKLHIAVFPWLAFGHMIPYLELSKLIAQKGHKISFISTPRNIDRLPKLPPNLTPFLNFVKLPMPHVEKLPENAEATIDLPYEQVKYLKLAQDALQESMSKFIEDSDIDFILFDFTSYWVPSIASKFNIPSGYFSIFIAAFLGFTGPVPGLNNDYEIRMTPEEYTVTPKWVPFETTVAFKLFEVSRIFEASMKGEEENIADIVRYYRSVENCDFLLVRSCSEFEPEWLKVVGDIHRKPVFPVGQLPTTPYEDDSTKIDAWREIKLWLDKQEKGKVIYVAFGSEAKPSQNELTELSLGLELSGLPFFWVLRIKRGESDDELIQLPEGFEERTKGRGIVCTSWAPQLKILSHDSVGGFLTHSGWSSVVEAIQFEKSLVLLTFLADQGINARLLEEKKMAYSIPRNDQDGSFTRDSVAESLNLVLVKEEGFIYREKIKEMKDLFCDKKRQNNYVENLLSFLQDYEKIKA
notes: full length, synthetic cDNA in pET15b, E. coli BL21(DE3), HisTrap purified
[1]
  Km: 603 ± 75 µM
  kcat: 1.8 ± 0.1 s⁻¹
  kcat/Km: 3000 ± 400 M⁻¹ s⁻¹
[2]
  Km: 5.9 ± 0.5 µM
  kcat: 0.33 ± 0.009 s⁻¹
  kcat/Km: 57000 ± 5000 M⁻¹ s⁻¹
[3]
  Km: 38 ± 4 µM
  kcat: 1.9 ± 0.1 s⁻¹
  kcat/Km: 51000 ± 5000 M⁻¹ s⁻¹
